According to patent US20240425885:
Numbering of substitutions follows the chain as printed.

Experiments:
Test in all cases: cleavage_in_vitro
[1] = test system: T1, OMNI-134 (metagenomic, unknown); details: TXTL; PAM NRAANYNN
T1 sequence: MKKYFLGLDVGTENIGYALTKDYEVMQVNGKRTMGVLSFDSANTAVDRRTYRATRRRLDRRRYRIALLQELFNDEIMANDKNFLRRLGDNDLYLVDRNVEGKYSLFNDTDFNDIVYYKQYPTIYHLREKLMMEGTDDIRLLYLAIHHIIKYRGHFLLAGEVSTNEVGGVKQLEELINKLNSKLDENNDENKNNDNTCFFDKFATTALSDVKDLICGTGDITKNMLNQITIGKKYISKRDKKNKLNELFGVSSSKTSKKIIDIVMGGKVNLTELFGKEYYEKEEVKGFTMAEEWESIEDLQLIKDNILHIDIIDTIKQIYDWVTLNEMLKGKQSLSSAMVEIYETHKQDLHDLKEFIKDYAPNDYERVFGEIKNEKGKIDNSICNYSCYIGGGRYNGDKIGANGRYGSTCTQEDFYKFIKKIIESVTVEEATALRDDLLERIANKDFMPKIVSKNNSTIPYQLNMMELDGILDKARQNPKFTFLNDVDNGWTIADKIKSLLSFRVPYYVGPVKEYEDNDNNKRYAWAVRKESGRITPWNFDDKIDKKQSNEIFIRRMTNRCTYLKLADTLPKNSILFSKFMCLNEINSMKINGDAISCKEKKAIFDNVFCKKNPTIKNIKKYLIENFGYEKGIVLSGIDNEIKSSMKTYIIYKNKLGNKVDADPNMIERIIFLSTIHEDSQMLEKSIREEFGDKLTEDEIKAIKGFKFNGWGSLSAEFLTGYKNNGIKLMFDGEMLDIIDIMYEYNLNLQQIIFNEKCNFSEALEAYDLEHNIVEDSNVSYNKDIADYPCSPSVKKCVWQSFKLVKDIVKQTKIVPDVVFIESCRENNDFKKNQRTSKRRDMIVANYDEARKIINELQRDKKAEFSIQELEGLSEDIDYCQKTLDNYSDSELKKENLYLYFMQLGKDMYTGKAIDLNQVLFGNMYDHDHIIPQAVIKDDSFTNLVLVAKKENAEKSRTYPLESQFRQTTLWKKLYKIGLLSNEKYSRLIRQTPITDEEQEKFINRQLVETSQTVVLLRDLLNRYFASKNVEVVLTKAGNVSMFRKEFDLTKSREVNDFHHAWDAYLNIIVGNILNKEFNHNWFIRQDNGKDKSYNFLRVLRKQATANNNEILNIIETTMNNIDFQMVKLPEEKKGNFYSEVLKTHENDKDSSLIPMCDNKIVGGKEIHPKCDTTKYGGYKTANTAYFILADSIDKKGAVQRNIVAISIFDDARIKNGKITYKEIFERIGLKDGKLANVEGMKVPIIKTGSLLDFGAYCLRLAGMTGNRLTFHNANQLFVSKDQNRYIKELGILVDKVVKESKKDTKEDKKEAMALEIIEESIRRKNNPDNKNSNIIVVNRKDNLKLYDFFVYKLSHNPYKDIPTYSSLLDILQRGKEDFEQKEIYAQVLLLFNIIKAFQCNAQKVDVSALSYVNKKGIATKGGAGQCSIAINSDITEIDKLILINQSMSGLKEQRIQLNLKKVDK

[2] = test system: T2, OMNI-104 (metagenomic, unknown); details: TXTL; PAM NRRRNYCN
T2 sequence: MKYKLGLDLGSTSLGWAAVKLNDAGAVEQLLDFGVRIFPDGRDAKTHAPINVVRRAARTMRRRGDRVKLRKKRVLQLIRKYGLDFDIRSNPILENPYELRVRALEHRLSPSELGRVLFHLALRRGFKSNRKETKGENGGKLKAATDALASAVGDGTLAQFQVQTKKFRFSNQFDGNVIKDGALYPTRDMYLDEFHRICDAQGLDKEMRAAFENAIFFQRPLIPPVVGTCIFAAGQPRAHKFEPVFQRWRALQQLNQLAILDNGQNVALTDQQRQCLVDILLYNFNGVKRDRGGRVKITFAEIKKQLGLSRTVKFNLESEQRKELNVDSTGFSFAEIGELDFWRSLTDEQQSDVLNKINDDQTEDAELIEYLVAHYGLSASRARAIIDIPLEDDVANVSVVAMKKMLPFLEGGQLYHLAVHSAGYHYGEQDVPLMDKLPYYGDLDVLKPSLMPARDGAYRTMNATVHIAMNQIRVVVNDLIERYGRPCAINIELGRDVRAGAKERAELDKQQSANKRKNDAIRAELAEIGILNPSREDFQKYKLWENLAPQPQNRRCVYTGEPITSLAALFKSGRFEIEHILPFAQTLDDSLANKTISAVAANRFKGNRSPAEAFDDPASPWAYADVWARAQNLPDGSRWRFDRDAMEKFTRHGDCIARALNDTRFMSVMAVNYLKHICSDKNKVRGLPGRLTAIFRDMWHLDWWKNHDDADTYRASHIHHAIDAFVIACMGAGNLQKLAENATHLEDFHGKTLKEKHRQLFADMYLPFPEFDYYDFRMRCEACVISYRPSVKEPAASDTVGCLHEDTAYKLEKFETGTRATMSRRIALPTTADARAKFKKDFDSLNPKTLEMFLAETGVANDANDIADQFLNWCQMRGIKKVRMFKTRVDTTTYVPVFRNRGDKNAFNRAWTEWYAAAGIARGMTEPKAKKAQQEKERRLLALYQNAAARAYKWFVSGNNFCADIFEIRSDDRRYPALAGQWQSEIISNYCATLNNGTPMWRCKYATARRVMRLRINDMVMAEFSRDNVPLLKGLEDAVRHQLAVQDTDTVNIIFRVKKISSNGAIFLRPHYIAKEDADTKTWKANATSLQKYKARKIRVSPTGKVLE

[3] = test system: T3, OMNI-105 (metagenomic, unknown); details: TXTL; PAM NRRRNNNN
T3 sequence: T2 sequence with T1080P, K1084Q

[4] = test system: T4, OMNI-101 (metagenomic, unknown); details: TXTL; PAM NRRRNNNN
T4 sequence: T2 sequence with A151T, K1084Q

Sequence	activity (1-depletion score) [1]	activity (1-depletion score) [2]	activity (1-depletion score) [3]	activity (1-depletion score) [4]
GGAAGAGCAGAGCCUUGGUCUCGUUUGAGAGUAUUGUUGAAAAACAAUCGUUCAAAUAAGGUUUUACCUUAAGCAUCCUAUUGGAUCAGUCGACUAAUCAGAGUCGACUAUUUUUU / GGAAGAGCAGAGCCTTGGTCTCNNNNNNNN / NNNNNNNNGAGACCAAGGCTCTGCTCTTCC [T2 sgRNA 19 V1 ; T2 protospacer + 8N PAM library (pbPOS T2)]	0.98			
GGAAGAGCAGAGCCUUGGUCUCGUUGCACCUAGACACCGAGAAAUCGGUGUCUUUGUGUUAAUAAGAACCUUUCUUUGGAAAGGAGUUCACCAUUUACAAACAGGCACUUCGGUGUCUGUUUUUU / GGAAGAGCAGAGCCTTGGTCTCNNNNNNNN / NNNNNNNNGAGACCAAGGCTCTGCTCTTCC [T2 sgRNA 13 V1 ; T2 protospacer + 8N PAM library (pbPOS T2)]		0.92	1	0.98
GGAAGAGCAGAGCCUUGGUCUCGUUGCACCUAGACGAAAGUCUUUGUGUUAAUAAGAACCUUUCUUUGGAAAGGAGUUCACCAUUUACAAACAGGCACUUCGGUGUCUGUUUUUU / GGAAGAGCAGAGCCTTGGTCTCNNNNNNNN / NNNNNNNNGAGACCAAGGCTCTGCTCTTCC [T2 sgRNA 11 V1 ; T2 protospacer + 8N PAM library (pbPOS T2)]		1	0.98	0.96
GGAAGAGCAGAGCCUUGGUCUCGUUAUUUUGAAUACUAGAAAGUGUAUUUAAAGUAAAUAAAAAGUUAAAUUUAAAGAUAAAAGUAAAUAAUUAGUAAAUUAACUUCUGAUAAUGUGAAAUUCAUUUGUUUUUU / GGAAGAGCAGAGCCTTGGTCTCNNNNNNNN / NNNNNNNNGAGACCAAGGCTCTGCTCTTCC [T2 sgRNA 39 V1 ; T2 protospacer + 8N PAM library (pbPOS T2)]	0.99			
GGAAGAGCAGAGCCUUGGUCUCGUUUGAGAGUAUUGUUAUUGAAAAAUAACAAUCGUUCAAAUAAGGUUUUACCUUAAGCAUCCUAUUGGAUCAGUCGACUAACCAGAGUCGACUAUUUUUU / GGAAGAGCAGAGCCTTGGTCTCNNNNNNNN / NNNNNNNNGAGACCAAGGCTCTGCTCTTCC [T2 sgRNA 34 V1 ; T2 protospacer + 8N PAM library (pbPOS T2)]	0.94			
GGAAGAGCAGAGCCUUGGUCUCGUUGCACCUAGACACCGAAAGGUGUCUUUGUGUUAAUAAGAACCUUUCUUUGGAAAGGAGUUCACCAUUUACAAACAGGCACUUCGGUGUCUGUUUUUUU / GGAAGAGCAGAGCCTTGGTCTCNNNNNNNN / NNNNNNNNGAGACCAAGGCTCTGCTCTTCC [T2 sgRNA 14 V1 ; T2 protospacer + 8N PAM library (pbPOS T2)]		0.98	0.94	0.97
